Results on 17 molecules are retold here after patent publication US20220411491A1 (Hoffmann-La Roche, published 2022).

B1: P1AE5739 (antibody, V domains shown)
VH: EVQLVESGGGVVQPGRSLRLSCAASGFSFSNYGMAWVRQAPGKGLEWVASISTGGGNTYYRDSVKGRFTISRDNAKNTLYLQMNSLRAEDTAVYYCTRHDRGGLYWGQGTMVTVSS
VL: DIVMTQSPLSLPVTPGEPASISCRSSKSLLHSNGITYVYWYLQKPGQSPQVLIYRMSNLASGVPDRFSGSGSGTDFTLKISRVEAEDVGVYHCGQLLENPYTFGQGTKLEIK
B2: P1AE5740 (antibody, V domains shown)
VH: B1 VH
VL: B1 VL with Q47K
B3: P1AE5734 (antibody, V domains shown)
VH: B1 VH with E1Q, A75S
VL: B1 VL
B4: P1AE5751 (antibody, V domains shown)
VH: B1 VH with R61A
VL: B1 VL with Q47K
B5: P1AE5752 (antibody, V domains shown)
VH: B1 VH with R61A
VL: B1 VL with V51L, L59R
B6: P1AE5755 (antibody, V domains shown)
VH: B1 VH with V11L, R16G
VL: B1 VL
B7: P1AE5744 (antibody, V domains shown)
VH: B1 VH with E1Q, R61A, A75S
VL: B1 VL
B8: P1AE5745 (antibody, V domains shown)
VH: B1 VH with E1Q, R61A, A75S
VL: B1 VL with Q47K
B9: P1AE5735 (antibody, V domains shown)
VH: B1 VH with E1Q, A75S
VL: B1 VL with Q47K
B10: P1AE5757 (antibody, V domains shown)
VH: B1 VH with V11L, R16G
VL: B1 VL with V51L, L59R
B11: P1AE5760 (antibody, V domains shown)
VH: B1 VH with V11L, R16G, R61A
VL: B1 VL
B12: P1AE5761 (antibody, V domains shown)
VH: B1 VH with V11L, R16G, R61A
VL: B1 VL with Q47K
B13: P1AE5746 (antibody, V domains shown)
VH: B1 VH with E1Q, R61A, A75S
VL: B1 VL with V51L, L59R
B14: P1AE5736 (antibody, V domains shown)
VH: B1 VH with E1Q, A75S
VL: B1 VL with V51L, L59R
B15: P1AE5756 (antibody, V domains shown)
VH: B1 VH with V11L, R16G
VL: B1 VL with Q47K
B16: P1AE5741 (antibody, V domains shown)
VH: B1 VH
VL: B1 VL with V51L, L59R
B17: P1AE5750 (antibody, V domains shown)
VH: B1 VH with R61A
VL: B1 VL

Changes are numbered by the printed parent chain.

The target of this test is human GPRC5D (human, UniProt Q9NZD1 1-345). Kind of test: cell-based or functional assay.
human GPRC5D, sequence (Q9NZD1 whole entry): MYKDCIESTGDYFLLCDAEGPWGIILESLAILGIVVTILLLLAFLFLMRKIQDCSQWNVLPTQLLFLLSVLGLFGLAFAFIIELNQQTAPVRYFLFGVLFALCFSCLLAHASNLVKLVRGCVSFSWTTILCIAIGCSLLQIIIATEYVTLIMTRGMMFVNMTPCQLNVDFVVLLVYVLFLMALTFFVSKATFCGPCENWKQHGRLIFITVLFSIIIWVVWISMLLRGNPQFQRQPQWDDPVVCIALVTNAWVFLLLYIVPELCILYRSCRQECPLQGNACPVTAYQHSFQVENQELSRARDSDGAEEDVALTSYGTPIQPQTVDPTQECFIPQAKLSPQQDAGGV
Consider B1, for which the “CAR-J2 EC50” value was determined as 0.0235 µg/mL.

With B2, the “CAR-J2 EC50” value was determined as 0.00896 µg/mL.

For the molecule B3, the “CAR-J2 EC50” value was found to be 0.0415 µg/mL.

Regarding B4, the “CAR-J2 EC50” value worked out at 0.00644 µg/mL.

For B5, the “CAR-J2 EC50” value came to 0.509 µg/mL.

In the case of B6, the “CAR-J2 EC50” value amounted to 0.152 µg/mL.

Take B7: the “CAR-J2 EC50” value came out at 0.00363 µg/mL.

Take B8: the “CAR-J2 EC50” value came to 0.00162 µg/mL.

In the case of B9, the “CAR-J2 EC50” value was 0.0821 µg/mL.

With B10, the “CAR-J2 EC50” value was found to be 0.145 µg/mL.

Turning to B11, the “CAR-J2 EC50” value is 0.19 µg/mL.

For the molecule B12, the “CAR-J2 EC50” value was 0.0746 µg/mL.

As for B13, the “CAR-J2 EC50” value stood at 0.514 µg/mL.

On to B14, for which the “CAR-J2 EC50” value was determined as 0.00138 µg/mL.

B15: the “CAR-J2 EC50” value came out at 0.17 µg/mL.

Consider B16, for which the “CAR-J2 EC50” value stood at 0.0014 µg/mL.

B17: the “CAR-J2 EC50” value was 0.0206 µg/mL.
